According to the supplement of paper PMC7125110:
± gives the standard error. This sample holds only a part of the variants without activity.

B1: glmS ribozyme (parent)
chain: AUAAAAGCGCCAGAACUACAGAAAUGUAGUUGACGAGGAGGAGGUUUAUCGAAUUUUCGGCGGAUGCCUCCAAA

Assays:
Conditions in all cases: with glucosamine-6-phosphate
glucosamine-6-phosphate [1] = variants of: B1; test: self-cleavage kobs at 160 uM GlcN6P; higher = faster cleavage; RNA array
Summary of the method: (§1)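 Tiles bearing barcoded ribozyme variants, transcribed in situ by E. coli RNA polymerase on sequenced MiSeq chips, were imaged over ~14 h at 37 °C using a hybridised Cy3 probe. Glucosamine-6-phosphate was supplied at 40 μM to 10 mM in HEPES/KCl/Mg(OAc)2 buffer. kobs came from one- or two-exponential decay fits to normalised per-tile medians, and weighted Michaelis–Menten fits then provided kcat and KM.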

glucosamine-6-phosphate [2] = variants of: B1; test: self-cleavage kobs at 640 uM GlcN6P; higher = faster cleavage; RNA array
Summary of the method: as §1

glucosamine-6-phosphate [3] = variants of: B1; test: self-cleavage kobs at 2500 uM GlcN6P; higher = faster cleavage; RNA array
Summary of the method: as §1

glucosamine-6-phosphate [4] = variants of: B1; test: self-cleavage kobs at 10000 uM GlcN6P; higher = faster cleavage; RNA array
Summary of the method: as §1

Variant | self-cleavage kobs at 160 uM GlcN6P (glucosamine-6-phosphate [1]) [s⁻¹] | self-cleavage kobs at 640 uM GlcN6P (glucosamine-6-phosphate [2]) [s⁻¹] | self-cleavage kobs at 2500 uM GlcN6P (glucosamine-6-phosphate [3]) [s⁻¹] | self-cleavage kobs at 10000 uM GlcN6P (glucosamine-6-phosphate [4]) [s⁻¹]
AUAAAAGCGCCAGAACUACAGAAAUGUAGUUGACGACGAGGAGGUAUAUCGAAUUUUCGGCGGAUGCAUCCAAA [G37C U46A C68A] | < 1e-05 | – | – | –
AUAAAACCGCCAGAACUACAGAAAUGUAGUUGACGAGGAGGAGGUUUAUCGAAUUUUCGGCGGAUGCGUCCAAA [G7C C68G] | < 1e-05 | < 1e-05 | < 1e-05 | < 1e-05
AUAAAAGCCCCAGAACUACAGAAAUGUAGUUGACGAGAAGGAGGUUUAUCGAAUUUUCGGCGGAUGCCUUCAAA [G9C G38A C70U] | < 1e-05 | < 1e-05 | < 1e-05 | –
AUAAAAUCGCCUGAACUACAGAAAUGUAGUUGACGAGGAGGAGGUUUAUCGAAUUGUCGGCGGAUGCCUCCAAA [G7U A12U U56G] | < 1e-05 | < 1e-05 | – | –
AUAAAAGCGCCAGAUCUACAGAAAUGUAGUUGACGCGGAGUAGGUUUAUCGAAUUUUCGGCGGAUGCCUCGAAA [A15U A36C G41U C71G] | < 1e-05 | < 1e-05 | – | –
AUAAAAGCGCCAGAACUACAGAAAUGUAGUUGACGAGGUGGAGGUUUAUCGAGUUUUCGGCGGAUGCCUCAAAA [A39U A53G C71A] | 0.000185 ± 3.5e-05 | – | 0.00139 ± 0.00042 | 0.00323 ± 0.00089
AUAAAAGCGCCAGAACUACAGAAAUGUAGUUGACGAGGAGGAGAUUUAUCGAAUUUUCGGUGGAUGCCUCCAAA [G44A C61U] | < 1e-05 | < 1e-05 | < 1e-05 | < 1e-05
AUAAAAGGGCCAGAACUACAGAAAUGUAGUUGACGAGGAGGAGGUUUAUCCAAUUUUCGGCGGAUGCGUCCAAA [C8G G51C C68G] | < 1e-05 | < 1e-05 | – | –
AUAAAAGGGCCAGAACUACAGAAAUGUAGUUGACGAUGAGGAGGUUUAUCUAAUUUUCGGCGGAUGCCUCCAAA [C8G G37U G51U] | < 1e-05 | < 1e-05 | – | –
AUAAAAGGGCCCGAACUACAGAAAUGUAGUUGACGCGGAGGAGGUUUAUCGAAUUUUCAGCGGAUGCCUCCAAA [C8G A12C A36C G59A] | < 1e-05 | – | < 1e-05 | –
AUAAAAGCGCCAGAACUACAGAAAUGUAGUUGACGACGAGGAGGUUAAUCGAAUUUUCGGCGGAUGCCUCCAAA [G37C U47A] | < 1e-05 | – | – | 4.38e-05 ± 1.1e-05
AUAAAAGCGCCAGAACUACAGAAAUGUAGUCGACGAGGAAGAGGUUUAUCGAUUUUUCGGCGGAUGCCUCCAAA [U31C G40A A53U] | 9.65e-05 ± 3.1e-05 | 7.74e-05 ± 1.7e-05 | – | –
AUAAAAUCGGCAUAUCUACAGAAAUGUAGUUGACGAGGGGGAGGUUUAUCGAAUUUUCGGCGGAUGCCUCCAAA [G7U C10G G13U A15U A39G] | < 1e-05 | < 1e-05 | < 1e-05 | –
AUAAAAGCGCCAGAACUACAGAAAUGUAGUUGACGAGUAGGAGGUUUAUCGAAUUUUCGGCGGAUGCAUCCAAA [G38U C68A] | 7.69e-05 ± 2.1e-05 | 0.000459 ± 0.00019 | 0.000238 ± 9.6e-05 | –
AUAAAAGCGCCAGAACUACAGAAAUGUAGUUGACGAGGAGGAGGUUUAUGGAAUUAUGGGCGGAUGCCUCCAAA [C50G U56A C58G] | 9.66e-05 ± 4.4e-05 | 0.00041 ± 0.00014 | 6.12e-05 ± 2.4e-05 | –
AUAAAAGCGCCAGAACUACAGAAAUGUAGUUGACUAGGAGGAGGUUUAUCGAAUUUUCGGCGGAUCCCUCCAAA [G35U G66C] | < 1e-05 | < 1e-05 | < 1e-05 | –
AUAAAAGCGCCACAACUACAGAAAUGUAGUUGACGAGGAGGAGCUUUAUCGAAUUUUCGGAGGAUGCCUCCAAA [G13C G44C C61A] | < 1e-05 | – | – | –

Variant | self-cleavage kobs at 160 uM GlcN6P (glucosamine-6-phosphate [1]) [s⁻¹] | self-cleavage kobs at 640 uM GlcN6P (glucosamine-6-phosphate [2]) [s⁻¹] | self-cleavage kobs at 2500 uM GlcN6P (glucosamine-6-phosphate [3]) [s⁻¹] | self-cleavage kobs at 10000 uM GlcN6P (glucosamine-6-phosphate [4]) [s⁻¹]
AUAAAAGCGCCAGAACUACAGAAAUGUAGUUGACAAGGAGGAGGUUUAUCGAAUUUUCGGCGGAUGCCUGCAAA [G35A C70G] | < 1e-05 | < 1e-05 | – | –
AUAAAAGCGCGAGAACUACAGAAAUGUAGUUAACGAGGAGGAGGUUUAUCGAAUUUUCCGCGGAUGCCUCCAAA [C11G G32A G59C] | < 1e-05 | < 1e-05 | – | –
AUAAAAGCGCCAGAACUACAGAAAUGUAGUUGACGAGGAGGAGGUUUCUCCAAUUUUCGGCGGAUGCCUCCAAA [A48C G51C] | < 1e-05 | < 1e-05 | – | –
AUAAAACCGCCAGGACUACAGAAAUGUAGUUGACGAGGAGGAGGUUUAUCGAAUUUUCGGUGGAUGCCUCCAAA [G7C A14G C61U] | < 1e-05 | – | – | –
AUAAAAGCGCCAGAACUACAGAAAUGUAGUUGACGAGGAGGAGGUUUAUCGAAGUUUCGGCGGGUGCAUCCAAA [U54G A64G C68A] | 5.71e-05 ± 2.2e-05 | 6.86e-05 ± 1.5e-05 | 0.000107 ± 2.7e-05 | –
AUAAAAGCGCUAGUACUACAGAAAUGUAGUUGACGAGGAGGAGGUUUAUCGAAUUUUCGGCGGCUGCCUCCAAA [C11U A14U A64C] | < 1e-05 | – | – | –
AUAAAAGUGCCAGAACUACAGAAAUGUAGUUGACGAGGAGGAGGUUUAUCGAAUUGUCGGCGGAUGCCUCCAAA [C8U U56G] | < 1e-05 | < 1e-05 | < 1e-05 | –
AUAAAAGCGCCAGAAGUACAGAAAUGUAUUUGACGAAGAGGAGGUUUAUCGAAUUUUCGGCGGAUGCCUCCAAA [C16G G29U G37A] | 5.27e-05 ± 1.6e-05 | 0.000272 ± 7.4e-05 | 0.000382 ± 9.7e-05 | –
AUAAAAUCGCCGGAACUACAGAAAUGUAGUUUACGAGGAGGAGGUUUAUCGAAUUUUCGGCGGAUGCCUCCAAA [G7U A12G G32U] | < 1e-05 | – | – | –
AUAAAAGCGCCAGUACUACAGAAAUGUAGUUGACGAGGAGGAGGUUUAUCGAAUUUUCGGCGGACGCCCCCAAA [A14U U65C U69C] | < 1e-05 | – | – | –
AUAAAAGCGCCAGAACUACAGAAAUGUAGUUGACGAGGAGGAGGUUUACCGAGUUUUCGGCGGAUGCCUCCAAA [U49C A53G] | < 1e-05 | < 1e-05 | – | < 1e-05
AUAAAAACGCCAGAACUACAGAAAUGUAGUUGACGAGGAGGAGGUUUAACGAAUUUUCGGCGGAUGCCUCCAAA [G7A U49A] | < 1e-05 | < 1e-05 | < 1e-05 | < 1e-05
AUAAAAGCGCCAGCACUACAGAAAUGUAGUUGACGUGCGGGAGGUUUAUCGAAUUUUCGGCGGAUGCCUCCAAA [A14C A36U G38C A39G] | < 1e-05 | – | < 1e-05 | –
AUAAAAGCGCCAGAACUACAGAAAUGUAGUUGAAGAGGAGGAGGUUCCUCGAAUUUUCGGCGGAUGCCUCCAAA [C34A U47C A48C] | < 1e-05 | – | – | –
AUAAAAGCGCCAGAGCUACAGAAAUGUAGUUGUCGAGGAUGAGGUUUAUCGAAUUUUCGGCGGAUGGCUCCAAA [A15G A33U G40U C67G] | < 1e-05 | – | < 1e-05 | –
AUAAAAGGGCCAGAACUACAGAAAUGUAGUUGACGAGGAGGAGGUUUAUCGAAUUUUCGGCCGAUGCCUCCAAA [C8G G62C] | < 1e-05 | – | – | 3.7e-05 ± 8.1e-06
